Five variants from IntAct's records for PubMed 11356188 can be followed below.

B1: Circadian clock oscillator protein KaiC (Synechococcus elongatus (strain PCC 7942)), Q79PF4 (parent)
chain: MTSAEMTSPNNNSEHQAIAKMRTMIEGFDDISHGGLPIGRSTLVSGTSGTGKTLFSIQFLYNGIIEFDEPGVFVTFEETPQDIIKNARSFGWDLAKLVDEGKLFILDASPDPEGQEVVGGFDLSALIERINYAIQKYRARRVSIDSVTSVFQQYDASSVVRRELFRLVARLKQIGATTVMTTERIEEYGPIARYGVEEFVSDNVVILRNVLEGERRRRTLEILKLRGTSHMKGEYPFTITDHGINIFPLGAMRLTQRSSNVRVSSGVVRLDEMCGGGFFKDSIILATGATGTGKTLLVSRFVENACANKERAILFAYEESRAQLLRNAYSWGMDFEEMERQNLLKIVCAYPESAGLEDHLQIIKSEINDFKPARIAIDSLSALARGVSNNAFRQFVIGVTGYAKQEEITGLFTNTSDQFMGAHSITDSHISTITDTIILLQYVEIRGEMSRAINVFKMRGSWHDKAIREFMISDKGPDIKDSFRNFERIISGSPTRITVDEKSELSRIVRGVQEKGPES
partner: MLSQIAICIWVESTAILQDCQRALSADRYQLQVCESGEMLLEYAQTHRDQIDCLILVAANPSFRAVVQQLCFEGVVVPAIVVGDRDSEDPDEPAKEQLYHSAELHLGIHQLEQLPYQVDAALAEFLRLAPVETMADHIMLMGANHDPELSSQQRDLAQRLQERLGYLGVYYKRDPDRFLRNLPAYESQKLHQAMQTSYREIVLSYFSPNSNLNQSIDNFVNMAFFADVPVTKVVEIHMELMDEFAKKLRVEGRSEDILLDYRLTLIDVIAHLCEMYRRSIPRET
B2: Circadian clock oscillator protein KaiA (Synechococcus elongatus (strain PCC 7942)), Q79PF6 (parent)
chain: B1 partner
partner: B1 chain

One experiment covers variants of B1. The conditions noted are these: with kaia_syne7 kaiA, Q79PF6.
Consider MTSAEMTSPNNNSEHQAIAKMRTMIEGFDDISHGGLPIGRSTLVSGTSGTGKTLFSIQFLYNGIIEFDEPGVFVTFEETPQDIIKNARSFGWDLAKLVDEGKLFILDASPDPEGQEVVGGFDLSALIERINYAIQKYRARRVSIDSVTSVFQQYDASSVVRRELFRLVARLKQIGATTVMTTERIEEYGPIARYGVEEFVSDNVVILRNVLEGECRRRTLEILKLRGTSHMKGEYPFTITDHGINIFPLGAMRLTQRSSNVRVSSGVVRLDEMCGGGFFKDSIILATGATGTGKTLLVSRFVENACANKERAILFAYEESRAQLLRNAYSWGMDFEEMERQNLLKIVCAYPESAGLEDHLQIIKSEINDFKPARIAIDSLSALARGVSNNAFRQFVIGVTGYAKQEEITGLFTNTSDQFMGAHSITDSHISTITDTIILLQYVEIRGEMSRAINVFKMRGSWHDKAIREFMISDKGPDIKDSFRNFERIISGSPTRITVDEKSELSRIVRGVQEKGPES [R215C], for which the “effect of a mutation on the interaction” value was “decreasing interaction”. The same measure, in the same setting: with MTSAEMTSPNNNSEHQAIAKMRTMIEGFDDISHGGLPIGRSTLVSGTSGTGKTLFSIQFLYNGIIEFDEPGVFVTFEETPQDIIKNARSFGWDLAKLVDEGKLFILDASPDPEGQEVVGGFDLSALIERINYAIQKYRARRVSIDSVTSVFQQYDASSVVRRELFRLVARLKQIGATTVMTTERIEEYGPIARYGVEEFVSDNVVILRNVLEGERRRRTLEILKLRGTSHMKGEYPFTITDHGINIFKLGAMRLTQRSSNVRVSSGVVRLDEMCGGGFFKDSIILATGATGTGKTLLVSRFVENACANKERAILFAYEESRAQLLRNAYSWGMDFEEMERQNLLKIVCAYPESAGLEDHLQIIKSEINDFKPARIAIDSLSALARGVSNNAFRQFVIGVTGYAKQEEITGLFTNTSDQFMGAHSITDSHISTITDTIILLQYVEIRGEMSRAINVFKMRGSWHDKAIREFMISDKGPDIKDSFRNFERIISGSPTRITVDEKSELSRIVRGVQEKGPES [P248K] the entry was “decreasing interaction”.

The variants in another experiment derive from B1. The conditions noted are these: with kaia_syne7 kaiA, Q79PF6. This is another data set of the same source.
As to MTSAEMTSPNNNSEHQAIAKMRTMIEGFDDISHGGLPIGRSTLVSGTSGTGKTLFSIQFLYNGIIEFDEPGVFVTFEETPQDIIKNARSFGWDLAKLVDEGKLFILDASPDPEGQEVVGGFDLSALIERINYAIQKYRARRVSIDSVTSVFQQYDASSVVRRELFRLVARLKQIGATTVMTTERIEEYGPIARYGVEEFVSDNVVILRNVLEGERRRRTLEILKLRGTSHMKGEYPFTITDHGINIFPLGAMRLTQRSSNVRVSSGVVRLDEMCGGGFFKDSIILATGATGTGKTLLVSRFVENACANKERAILFAYEESRAQLLRNAYSWGMDFEEMERQNLLKIVCAYPESAGLEDHLQIIKSEINDFKPARIAIDSLSALARGVSNNAFRQFVIGVTGYAKQEEITGLFTNTSDQFMGAHSITDSHISTITDTIILLQYVEIRGEMSRAINVFKMRGSWHDKAIREFMISDKGPDIKDSFRNFERIISGSPARITVDEKSELSRIVRGVQEKGPES [T495A], the “effect of a mutation on the interaction” value is “decreasing interaction”.

Variants of B2 are the subject of another experiment. Conditions: with kaic_syne7 kaiC, Q79PF4.
MLSQIAICIWVESTAILQDCQRALSADRYQLQVCESGEMLLEYAQTHRDQIDCLILVAANPSFRAVVQQLCFEGVVVPAIVVGDRDSEDPDEPAKEQLYHSAELHLGIHQLEQLPYQVDAALAEFLRLAPVETMADHIMLMGANHDPELSSQQRDLAQRLQERLGYLGVYYKRDPDRFLRNLPAYESQKLHQAMQTSYREIVLSYFSPNSNLNQSIDNFVNMAFFADVPVTKVVEIHMELMDEFAKKLHVEGRSEDILLDYRLTLIDVIAHLCEMYRRSIPRET [R249H]: the “effect of a mutation on the interaction” value is “decreasing interaction”.

A further experiment covers variants of B2. Conditions: with kaic_syne7 kaiC, Q79PF4. The source holds these as a separate data set.
With MLSQIAICIWVESTAILQDCQRALSADRYQLQVCESGEMLLEYAQTHRDQIDCLILVAANPSFRAVVQQLCFEGVVVPAIVVGDRDSEDPDEPAKEQLYHSAELHLGIHQLEQLPYQVDAALAEFLRLAPVETMADHIMLMGANHDPELSSQQRDLAQRLQERLGCLGVYYKRDPDRFLRNLPAYESQKLHQAMQTSYREIVLSYFSPNSNLNQSIDNFVNMAFFADVPVTKVVEIHMELMDEFAKKLRVEGRSEDILLDYRLTLIDVIAHLCEMYRRSIPRET [Y166C], the “effect of a mutation on the interaction” value was “decreasing interaction”.
